Biological target: nine-person peanut-specific IgE antibody pool (pooled serum of patients with AD and positive peanut challenge)
Test: IgE ELISA inhibition, crude peanut coated, pooled serum

IC50: 5.5 ng/mL
B1: Ara h I, 63.5 kD peanut allergen, native, purified from Florunner peanut extract (protein, Arachis hypogaea, UniProt P43238 85-626, looked up)
chain: RSPPGERTRGRQPGDYDDDRRQPRREEGGRWGPAGPREREREEDWRQPREDWRRPSHQQPRKIRPEGREGEQEWGTPGSHVREETSRNNPFYFPSRRFSTRYGNQNGRIRVLQRFDQRSRQFQNLQNHRIVQIEAKPNTLVLPKHADADNILVIQQGQATVTVANGNNRKSFNLDEGHALRIPSGFISYILNRHDNQNLRVAKISMPVNTPGQFEDFFPASSRDQSSYLQGFSRNTLEAAFNAEFNEIRRVLLEENAGGEQEERGQRRWSTRSSENNEGVIVKVSKEHVEELTKHAKSVSKKGSEEEGDITNPINLREGEPDLSNNFGKLFEVKPDKKNPQLQDLDMMLTCVEIKEGALMLPHFNSKAMVIVVVNKGTGNLELVAVRKEQQQRGRREEEEDEDEEEEGSNREVRRYTARLKEGDVFIMPAAHPVAINASSELHLLGFGINAENNHRIFLAGDKDNVIDQIEKQAKDLAFPGSGEQVEKLIKNQKESHFVSARPQSQSQSPSSPEKESPEKEDQEEENQGGKGPLLSILKAFN
modifications: glycoprotein

— patent US6835824
